These results are taken from US20230331829A1 (KOREA ADVANCED INSTITUTE OF SCIENCE AND TECHNOLOGY, published 2023).

The target in the test is T1, PROX1 protein of mouse retinal tissue (mouse, UniProt P48437 1-737).
T1 construct: Endogenous protein
T1 sequence (looked up): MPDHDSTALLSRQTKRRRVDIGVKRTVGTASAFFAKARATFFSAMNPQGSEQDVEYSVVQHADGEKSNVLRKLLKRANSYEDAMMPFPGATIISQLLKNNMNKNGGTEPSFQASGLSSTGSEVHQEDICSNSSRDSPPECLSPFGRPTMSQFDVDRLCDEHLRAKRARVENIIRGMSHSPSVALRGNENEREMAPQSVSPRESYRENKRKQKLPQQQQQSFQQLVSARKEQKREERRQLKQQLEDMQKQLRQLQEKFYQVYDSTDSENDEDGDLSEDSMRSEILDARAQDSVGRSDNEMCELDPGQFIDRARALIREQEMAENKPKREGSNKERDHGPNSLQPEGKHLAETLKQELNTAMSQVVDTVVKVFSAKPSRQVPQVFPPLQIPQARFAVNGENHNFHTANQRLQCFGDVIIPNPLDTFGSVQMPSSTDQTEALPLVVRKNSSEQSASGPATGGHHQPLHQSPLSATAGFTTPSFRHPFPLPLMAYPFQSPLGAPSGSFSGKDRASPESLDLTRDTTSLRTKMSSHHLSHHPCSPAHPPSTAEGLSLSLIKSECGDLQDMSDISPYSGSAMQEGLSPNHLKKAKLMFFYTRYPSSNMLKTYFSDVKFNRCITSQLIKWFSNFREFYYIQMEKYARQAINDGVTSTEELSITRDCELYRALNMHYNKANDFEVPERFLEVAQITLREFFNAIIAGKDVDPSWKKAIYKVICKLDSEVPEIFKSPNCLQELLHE
The test can be described thus: immunoprecipitation with Ni-NTA beads from mouse retinal tissue lysate, Western blot. The procedure:
Protein samples were prepared from mice cortex tissue not expressing PROX1 protein and mouse retinal tissue expressing PROX1 protein and PROX1 neutralizing single chain antibody (anti-PROX1-scFv-His) at 4° C. for 16 hours, followed by Ni-NTA beads for 4 hours. Thereafter, the Ni-NTA bead immune complex was washed five times with a washing buffer (50 mM imidazole and protease inhibitor) and a Western blot experiment was performed to confirm the binding ability of the single chain antibody to the PROX1 protein.
Thereafter, the Ni-NTA bead immune complex was washed 5 times with a washing buffer (50 mM imidazole and protease inhibitor) and a Western blot experiment was performed to confirm the binding ability of the PROX1 neutralizing single chain antibody to the PROX1 protein (see FIG. 1).
(In western blotting, separated proteins are transferred to a membrane and probed.)

B1: anti-PROX1-single chain Fv-His (clone #1A11) (scFv, V domains shown)
VH: AVTLDESGGGLQTPGGGLSLVCKASGFTFSSYAMNWVRQAPGKGLEWVAAIDDDGSYTGYGSAVKGRATISRDNGQSTVRLQLNNLRAEDTAIYYCAKAAGSGYCYRGANSSYTCGTYNAGDIDAWGHGTEVIVSS
VL: LTQPSSVSANLGETVEITCSGGSGSYGWYQQKSPGSAPVTLIYDNANRPSNIPSRFSGSKSGSTGTLTITGVRAEDEAVYYCGNVDSSTYVGMFGAGTTLTVL
notes: One polypeptide (scFv from a chicken antibody phage display library) with a hexa-histidine tag; used as phage periplasmic supernatant; also called anti-PROX1-scFv-His; scFv-His
Regarding B1, the binding result is “binds”.
